The chains are these.
B3: Zwilch (natural protein)
chain: not shown

For assay [1], the target named is ROD–Zwilch–ZW10 (RZZ) complex (human, UniProt P50748 1-2209; Q9H900 1-591; O43264 1-779). Put plainly: AUC.
For assay [2], the target named is T1, ROD^1–1,250 (human, UniProt P50748 1-1250).
T1 sequence (looked up): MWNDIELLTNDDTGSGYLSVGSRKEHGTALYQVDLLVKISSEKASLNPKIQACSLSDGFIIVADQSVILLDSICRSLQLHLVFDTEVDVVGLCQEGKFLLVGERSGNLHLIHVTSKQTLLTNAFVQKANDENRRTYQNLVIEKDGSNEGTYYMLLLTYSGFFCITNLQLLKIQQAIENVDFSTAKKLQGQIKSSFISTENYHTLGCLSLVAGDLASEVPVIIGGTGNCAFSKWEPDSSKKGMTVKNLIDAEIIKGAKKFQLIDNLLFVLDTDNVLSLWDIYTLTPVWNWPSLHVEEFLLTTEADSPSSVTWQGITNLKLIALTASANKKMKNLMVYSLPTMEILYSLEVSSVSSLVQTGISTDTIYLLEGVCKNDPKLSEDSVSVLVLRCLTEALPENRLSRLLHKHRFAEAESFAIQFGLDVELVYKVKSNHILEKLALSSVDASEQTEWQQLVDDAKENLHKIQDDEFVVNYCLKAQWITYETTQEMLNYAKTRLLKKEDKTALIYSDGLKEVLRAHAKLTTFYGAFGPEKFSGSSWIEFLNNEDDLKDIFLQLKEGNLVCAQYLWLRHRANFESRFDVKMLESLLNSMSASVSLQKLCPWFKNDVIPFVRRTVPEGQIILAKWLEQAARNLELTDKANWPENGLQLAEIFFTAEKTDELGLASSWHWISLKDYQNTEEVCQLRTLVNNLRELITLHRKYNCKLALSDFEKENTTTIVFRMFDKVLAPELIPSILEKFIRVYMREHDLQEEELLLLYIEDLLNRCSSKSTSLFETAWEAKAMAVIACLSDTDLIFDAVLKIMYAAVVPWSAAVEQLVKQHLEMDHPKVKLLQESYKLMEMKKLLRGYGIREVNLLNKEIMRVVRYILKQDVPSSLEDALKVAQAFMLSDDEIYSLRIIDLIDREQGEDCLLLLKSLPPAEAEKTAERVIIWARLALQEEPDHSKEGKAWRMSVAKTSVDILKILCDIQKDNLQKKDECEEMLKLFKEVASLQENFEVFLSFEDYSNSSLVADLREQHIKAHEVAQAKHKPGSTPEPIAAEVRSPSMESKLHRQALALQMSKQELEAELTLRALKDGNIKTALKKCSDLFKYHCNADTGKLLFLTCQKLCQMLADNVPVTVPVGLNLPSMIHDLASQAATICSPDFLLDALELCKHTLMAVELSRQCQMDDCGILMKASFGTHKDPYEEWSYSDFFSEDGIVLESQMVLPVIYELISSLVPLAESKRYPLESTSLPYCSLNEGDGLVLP
The assay is described as follows: negative-stain EM 3D reconstruction.

Assay [3] concerns the target T1, ROD^1–1,250. The assay is described as follows: co-expression and co-purification.
The assay “Zwilch” has as its target B3. The assay is described as follows: SEC.

Chain of ROD–Zwilch–ZW10 (RZZ) complex (Q9H900 whole entry, one chain of several): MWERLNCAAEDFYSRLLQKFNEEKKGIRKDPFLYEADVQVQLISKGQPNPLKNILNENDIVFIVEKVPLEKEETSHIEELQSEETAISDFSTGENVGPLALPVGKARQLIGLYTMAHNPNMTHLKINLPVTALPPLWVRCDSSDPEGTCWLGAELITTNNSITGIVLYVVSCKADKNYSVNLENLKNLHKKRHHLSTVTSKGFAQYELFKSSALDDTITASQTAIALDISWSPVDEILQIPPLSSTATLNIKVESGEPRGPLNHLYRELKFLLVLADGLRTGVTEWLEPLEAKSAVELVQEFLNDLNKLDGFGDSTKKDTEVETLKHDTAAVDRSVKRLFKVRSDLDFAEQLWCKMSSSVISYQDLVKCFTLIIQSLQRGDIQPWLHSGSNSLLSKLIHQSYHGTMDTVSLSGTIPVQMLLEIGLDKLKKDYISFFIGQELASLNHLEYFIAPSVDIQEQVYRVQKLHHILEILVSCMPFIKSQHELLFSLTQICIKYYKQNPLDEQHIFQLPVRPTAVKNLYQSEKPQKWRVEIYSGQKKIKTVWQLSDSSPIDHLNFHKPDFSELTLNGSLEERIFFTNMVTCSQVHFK
Chain of Zwilch (Q9H900 whole entry): as the sequence (Q9H900 whole entry, one chain of several) above

B1: farnesylated Spindly (Spindly^Farn) (natural protein, human, UniProt Q96EA4 1-605, looked up)
chain: MEADIITNLRCRLKEAEEERLKAAQYGLQLVESQNELQNQLDKCRNEMMTMTESYEQEKYTLQREVELKSRMLESLSCECEAIKQQQKMHLEKLEEQLSRSHGQEVNELKTKIEKLKVELDEARLSEKQLKHQVDHQKELLSCKSEELRVMSERVQESMSSEMLALQIELTEMESMKTTLKEEVNELQYRQEQLELLITNLMRQVDRLKEEKEEREKEAVSYYNALEKARVANQDLQVQLDQALQQALDPNSKGNSLFAEVEDRRAAMERQLISMKVKYQSLKKQNVFNREQMQRMKLQIATLLQMKGSQTEFEQQERLLAMLEQKNGEIKHLLGEIRNLEKFKNLYDSMESKPSVDSGTLEDNTYYTDLLQMKLDNLNKEIESTKGELSIQRMKALFESQRALDIERKLFANERCLQLSESENMKLRAKLDELKLKYEPEETVEVPVLKKRREVLPVDITTAKDACVNNSALGGEVYRLPPQKEETQSCPNSLEDNNLQLEKSVSIYTPVVSLSPHKNLPVDMQLKKEKKCVKLIGVPADAEALSERSGNTPNSPRLAAESKLQTEVKEGKETSSKLEKETCKKLHPILYVSSKSTPETQCPQQ
modifications: farnesyl on Cys602
For B1, in assay [1], the “stoichiometry N” value was 2 copies of each subunit.

B2: mCherry–Spindly^Farn (natural protein, human, UniProt Q96EA4 1-605, looked up)
chain: MEADIITNLRCRLKEAEEERLKAAQYGLQLVESQNELQNQLDKCRNEMMTMTESYEQEKYTLQREVELKSRMLESLSCECEAIKQQQKMHLEKLEEQLSRSHGQEVNELKTKIEKLKVELDEARLSEKQLKHQVDHQKELLSCKSEELRVMSERVQESMSSEMLALQIELTEMESMKTTLKEEVNELQYRQEQLELLITNLMRQVDRLKEEKEEREKEAVSYYNALEKARVANQDLQVQLDQALQQALDPNSKGNSLFAEVEDRRAAMERQLISMKVKYQSLKKQNVFNREQMQRMKLQIATLLQMKGSQTEFEQQERLLAMLEQKNGEIKHLLGEIRNLEKFKNLYDSMESKPSVDSGTLEDNTYYTDLLQMKLDNLNKEIESTKGELSIQRMKALFESQRALDIERKLFANERCLQLSESENMKLRAKLDELKLKYEPEETVEVPVLKKRREVLPVDITTAKDACVNNSALGGEVYRLPPQKEETQSCPNSLEDNNLQLEKSVSIYTPVVSLSPHKNLPVDMQLKKEKKCVKLIGVPADAEALSERSGNTPNSPRLAAESKLQTEVKEGKETSSKLEKETCKKLHPILYVSSKSTPETQCPQQ
modifications: farnesyl on Cys602
In the case of B2, the “stoichiometry N” value in assay [1] was 2 copies of each subunit. Consider B3, for which the binding result with ROD^1–1,250 [2] and with ROD^1–1,250 [3] was “binds” each time.

B4: ZW10 (natural protein, human, UniProt O43264 1-779, looked up)
chain: MASFVTEVLAHSGRLEKEDLGTRISRLTRRVEEIKGEVCNMISKKYSEFLPSMQSAQGLITQVDKLSEDIDLLKSRIESEVRRDLHVSTGEFTDLKQQLERDSVVLSLLKQLQEFSTAIEEYNCALTEKKYVTGAQRLEEAQKCLKLLKSRKCFDLKILKSLSMELTIQKQNILYHLGEEWQKLIVWKFPPSKDTSSLESYLQTELHLYTEQSHKEEKTPMPPISSVLLAFSVLGELHSKLKSFGQMLLKYILRPLASCPSLHAVIESQPNIVIIRFESIMTNLEYPSPSEVFTKIRLVLEVLQKQLLDLPLDTDLENEKTSTVPLAEMLGDMIWEDLSECLIKNCLVYSIPTNSSKLQQYEEIIQSTEEFENALKEMRFLKGDTTDLLKYARNINSHFANKKCQDVIVAARNLMTSEIHNTVKIIPDSKINVPELPTPDEDNKLEVQKVSNTQYHEVMNLEPENTLDQHSFSLPTCRISESVKKLMELAYQTLLEATTSSDQCAVQLFYSVRNIFHLFHDVVPTYHKENLQKLPQLAAIHHNNCMYIAHHLLTLGHQFRLRLAPILCDGTATFVDLVPGFRRLGTECFLAQMRAQKGELLERLSSARNFSNMDDEENYSAASKAVRQVLHQLKRLGIVWQDVLPVNIYCKAMGTLLNTAISEVIGKITALEDISTEDGDRLYSLCKTVMDEGPQVFAPLSEESKNKKYQEEVPVYVPKWMPFKELMMMLQASLQEIGDRWADGKGPLAAAFSSSEVKALIRALFQNTERRAAALAKIK
In the case of B4, the binding result with ROD^1–1,250 [2] and with ROD^1–1,250 [3] was “binds” in each case.

B5: ROD^Δ754–1,796 (domain or fragment, human)
chain: MWNDIELLTNDDTGSGYLSVGSRKEHGTALYQVDLLVKISSEKASLNPKIQACSLSDGFIIVADQSVILLDSICRSLQLHLVFDTEVDVVGLCQEGKFLLVGERSGNLHLIHVTSKQTLLTNAFVQKANDENRRTYQNLVIEKDGSNEGTYYMLLLTYSGFFCITNLQLLKIQQAIENVDFSTAKKLQGQIKSSFISTENYHTLGCLSLVAGDLASEVPVIIGGTGNCAFSKWEPDSSKKGMTVKNLIDAEIIKGAKKFQLIDNLLFVLDTDNVLSLWDIYTLTPVWNWPSLHVEEFLLTTEADSPSSVTWQGITNLKLIALTASANKKMKNLMVYSLPTMEILYSLEVSSVSSLVQTGISTDTIYLLEGVCKNDPKLSEDSVSVLVLRCLTEALPENRLSRLLHKHRFAEAESFAIQFGLDVELVYKVKSNHILEKLALSSVDASEQTEWQQLVDDAKENLHKIQDDEFVVNYCLKAQWITYETTQEMLNYAKTRLLKKEDKTALIYSDGLKEVLRAHAKLTTFYGAFGPEKFSGSSWIEFLNNEDDLKDIFLQLKEGNLVCAQYLWLRHRANFESRFDVKMLESLLNSMSASVSLQKLCPWFKNDVIPFVRRTVPEGQIILAKWLEQAARNLELTDKANWPENGLQLAEIFFTAEKTDELGLASSWHWISLKDYQNTEEVCQLRTLVNNLRELITLHRKYNCKLALSDFEKENTTTIVFRMFDKVLAPELIPSILEKFIRVYMREHDLQEEGGSGGGSGGGSGGGSGIHAAAKEIAEVNEINLEKVWDMLLEKWLCPSTKPGEKPSELFELQEDEALRRVQYLLLSRPIDYSSRMLFVFATSTTTTLGMHQLTFAHRTRALQCLFYLADKETIESLFKKPIEEVKSYLRCITFLASFETLNIPITYELFCSSPKEGMIKGLWKNHSHESMAVRLVTELCLEYKIYDLQLWNGLLQKLLGFNMIPYLRKVLKAISSIHSLWQVPYFSKAWQRVIQIPLLSASCPLSPDQLSDCSESLIAVLECPVSGDLDLIGVARQYIQLELPAFALACLMLMPHSEKRHQQIKNFLGSCDPQVILKQLEEHMNTGQLAGFSHQIRSLILNNIINKKEFGILAKTKYFQMLKMHAMNTNNITELVNYLANDLSLDEASVLITEYSKHCGKPVPPDTAPCEILKMFLSGLS
As for B5, the binding result with Zwilch was “binds”.

For the origin of these results see paper PMC5379955 (The Journal of Cell Biology, 2017).
